Measurements taken from paper PMC7949130.

Columns and labels:
[1] = molecular target: native sulfated human cationic trypsin purified from pancreatic juice (human); assay: equilibrium binding assay; equilibrium dissociation constant of ecotin on human trypsins, 15 h of incubation; further conditions not told for ecotin
[2] = molecular target: nonsulfated human cationic trypsin purified from E. coli (human); assay: as above

Kd [1]: 5.6 pM
Kd [2]: 8.1 pM
Substance: ecotin (from UniProt P23827 21-162) (natural protein)
